US20090175796A1 (AGENSYS, published 2009)
Substitutions are numbered along the chain they refer to.

T1: 24P4C12 protein (human) (human, UniProt Q53GD3 1-710)
T1 construct: whole, on cells; also called SLC44A4; CTL4
T1 sequence (looked up): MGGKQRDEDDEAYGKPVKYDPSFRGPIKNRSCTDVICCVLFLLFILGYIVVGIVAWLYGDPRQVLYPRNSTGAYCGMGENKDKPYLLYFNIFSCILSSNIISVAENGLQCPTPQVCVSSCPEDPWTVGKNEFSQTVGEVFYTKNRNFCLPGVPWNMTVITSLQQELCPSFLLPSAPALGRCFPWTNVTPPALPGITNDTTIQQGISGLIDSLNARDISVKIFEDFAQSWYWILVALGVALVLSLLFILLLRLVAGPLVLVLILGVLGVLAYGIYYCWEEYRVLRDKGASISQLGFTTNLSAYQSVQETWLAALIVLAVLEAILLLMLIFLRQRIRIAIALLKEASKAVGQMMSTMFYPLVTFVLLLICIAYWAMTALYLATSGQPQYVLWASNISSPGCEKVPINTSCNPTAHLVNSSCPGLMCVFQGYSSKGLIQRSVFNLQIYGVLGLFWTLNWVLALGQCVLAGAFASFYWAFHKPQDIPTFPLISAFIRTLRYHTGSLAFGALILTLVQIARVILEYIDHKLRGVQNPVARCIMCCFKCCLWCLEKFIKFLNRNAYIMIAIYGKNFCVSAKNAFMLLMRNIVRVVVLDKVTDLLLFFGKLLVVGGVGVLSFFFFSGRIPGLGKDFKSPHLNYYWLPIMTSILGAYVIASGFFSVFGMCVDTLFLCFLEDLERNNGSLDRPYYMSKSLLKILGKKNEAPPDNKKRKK

B1: Ha5-3(3,5)37.1 (antibody, V domains shown)
VH: QVQLQESGPGLVKPSETLSLTCTVSGGSISSYYWSWIRQPPGKGLEWIGYIYYSGSTNYNPSLKSRVTISVDTSKNQFSLKLNSVTAADTAVYYCARGYYYGSESPYGMDVWGQGTTVTVSS
VL: DIVMTQSPLSLPVTPGEPASISCRSSQSLLHSNGHNYLDWYLQKPGQSPHLLIYLGSNRDSGVPDRFSGSGSGTDFTLKISRVEAEDVGVYYCMQALQIPCSFGQGTKLEIK
B2: Ha5-7acd7.1.1 (antibody, V domains shown)
VH: QVQLQESGPGLVKPSETLSLTCTVSGGSVSSGGYYWSWIRQPPGKGLEWIGYIYYSGGTNYNPSLKSRVTISVDTSKNQFSLKLTSVTAADTAVYYCARESGYCTNVACFPDAFDIWGQGTMVTVSS
VL: DVVMTQSPFSLPVTPGEPASISCRSSQSLLHSNGFNFLDWYLQKPGQSPQLLIYLGSIRASGVPDRFSGSGSGTDFTLKISRVEAEDVGVYYCMQALQTPLTFGGGTRVEIK
notes: copies: 2 + 2
B3: Ha5-7acd2.1 (antibody, V domains shown)
VH: QVQLQESGPGLVKPSETLSLTCTVSGGSISSYYWSWIRQPPGKGLEWIGYIYYSGSTNYNPSLKSRVTISVDTSKNQFSLKLSSVTAADTAVYYCANTYYYGSGYGMDVWGQGTTVTVSS
VL: DIVMTQSPLSLPVTPGEPASISCRSSQSLLHSTGHNYLDWYLQKPGQSPQLLIYLGSIRASGVPDRFSGSGSGTDFTLKISRVEAEDVGVYYCMQALQTITFGQGTRLEIK
B4: Ha5-7acd19.1 (antibody, V domains shown)
VH: B3 VH with Y50F, S54T
VL: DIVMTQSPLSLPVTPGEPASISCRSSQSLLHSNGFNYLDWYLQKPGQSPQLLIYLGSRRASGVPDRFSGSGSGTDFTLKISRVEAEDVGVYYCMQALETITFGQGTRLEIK
modifications: Labelled with Alexa Fluor 488 dye in the FIG. 14 experiment; the site is not stated and the letters do not carry it.
notes: copies: 2 + 2
B5: Ha5-1(5)1 (antibody, V domains shown)
VH: QVQLVESGGGVVQPGRSLRLSCGASGFTFSSYGMHWVRQAPGKGLEWVAVMSYDGSKKYYTDSVKGRFTISRDNSKNTLYLQMNSLRVEDTAVYYCARDGGDYVRYYYYGMDVWGQGTTVTVSS
VL: DIQMTQSPSSLSASVGDRVTITCRARQGITYHLAWYQQRPGKVPKLLIYDTSSLQSGVPSRFSGSGSGTDFTLTISSLQPEDVATYYCQRFNSAPLTFGGGTKVEIK
notes: also called HA5-1(5)1.1
B6: Ha5-1(5)2.1 (antibody, V domains shown)
VH: B5 VH with G23A, Y59F, V88A, Y107H
VL: DIQMTQSPSTLSASIGDRVTITCRASQGISYYLAWYQQKPGKIPKLLIYDTSSLQSGVPSRFSGSRSGTDLSLTISSLQPEDVATYYCQRYDSAPLTFGGGTKVEIK
B7: Ha5-7be20.1 (antibody, V domains shown)
VH: QVQLQESGPGLVKPSETLSLTCTVSGGSISSYYWSWIRQPPGKGLEWIGYIYYSGSTNYNPSLKSRVTISVDTSKNQFSLKLSSVTAADTAVYYCARGYYYGSGSYGLDVWGQGTTVTVSS
VL: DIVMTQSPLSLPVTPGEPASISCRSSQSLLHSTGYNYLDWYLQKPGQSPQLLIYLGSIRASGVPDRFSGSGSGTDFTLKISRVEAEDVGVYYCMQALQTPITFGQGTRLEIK
B8: Ha5-7be31.1 (antibody, V domains shown)
VH: B7 VH with S103A, L108M
VL: B2 VL with V2I, F9L, N33T, F37Y, A85T, A96T, L101I, G105Q, V109L
notes: copies: 2 + 2
B9: Ha5-8ac4.1 (antibody, V domains shown)
VH: QVQLQESGPGLVKPSETLSLTCTVSGGSISRYYWSWIRQPAGKGLERIGRIYTSGSTDYNPSLKSRVTMSVDTSKNQFSLKLRSVTAADTAVYYCARDLYSNGYWYFDLWGRGTLVTVSS
VL: QSVLTQPPSVSGAPGQRVTISCTGSSSNIGAGYDVHWYQQLPGTAPKLLIYGNSNRPSGVPDRFSGSKSGTSASLAITGLQAEDEADYYCQSYDSSLSGVVFGGGTKLTVL
notes: also called Ha5-8acd4.1
B10: Ha5-7acd10.1 (antibody, V domains shown)
VH: QVQLVESGGGVVQPGRSLRLSCAASGFTFSSYGMHWVRQAPGKGLEWVAVIWYDGSNKYYADSVKGRFTISRDNSKNTLYLQMNSLRAEDTAVYYCARDRYSGYDYYYYYGMDVWGQGTTVTVSS
VL: DIQMTQSPSSLSASVGDRVTITCRASQGIYNYLAWFQQKPGKAPKSLIYAASSLHSGVPSKFSGGGSGTDFTLTISSLQPEDFATYYCQQYTIYPFTFGPGTKVDIK
notes: copies: 2 + 2
B11: Ha5-11b1.1 (antibody, V domains shown)
VH: B10 VH with Y32H, R100Q, Y106L
VL: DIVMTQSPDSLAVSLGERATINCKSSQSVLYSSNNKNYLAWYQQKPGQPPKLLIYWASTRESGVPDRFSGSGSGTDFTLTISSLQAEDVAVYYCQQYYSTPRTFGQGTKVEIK
B12: Ha5-7acd20.1.1 (antibody, V domains shown)
VH: B10 VH with S56R, A61V, Y104S
VL: B10 VL with H55Q, G65S, D70V, I93V, I106F
B13: Ha5-3(1,4)7.1 (antibody, V domains shown)
VH: B10 VH with D105G
VL: B10 VL with G28D, Y30S, G65S
modifications: Labelled with Alexa Fluor 488 in the FIG. 14 experiment. The site is not stated and the letters do not carry it.
B14: Ha5-7acd16.1 (antibody, V domains shown)
VH: B10 VH with Y32H, R100A
VL: B10 VL with N31T, A50G, H55Q, G65S, S76T, T97S
notes: also called HA5-acd16.1; copies: 2 + 2
B15: Ha5-7acd4.1 (antibody, V domains shown)
VH: B10 VH
VL: B10 VL with G28V, A50G, G65S, D70E, T97S
B16: Ha5-7acd3.1 (antibody, V domains shown)
VH: B10 VH with A61T, Y107F
VL: B10 VL with K45R, G65S

Molecular target: T1, 24P4C12 protein (human)
Assay: FACS saturation equilibrium binding on LNCaP cells
Protocol: The affinity to LNCaP cells was determined by FACS using saturation equilibrium binding assay. […] At the end of incubation, the cells were washed with FACS Buffer and incubated with 100 ul of detection antibody (anti-hIgG-PE) for 45 minutes at 4° C., the cells were then washed with FACS Buffer, fixed with 2% Formaldehyde and analyzed using FACScan. FACS data were analyzed using CellQuest Pro software to acquire histogram and Mean Fluoresces Intensity (MFI) values of each point. The MFI values were used to calculate the binding affinity using non-linear regression using Prism4 software (Graphpad Software Inc. San Diego Calif.).

Binder | Kd [nM]
B1 | 0.45
B2 | 1.85
B3 | 1.95
B4 | 0.19
B5 | 4.1
B6 | 2.75
B7 | 3.2
B8 | 4.15
B9 | 0.07
B10 | 1.26
B11 | 3.4
B12 | 1.1
B13 | 5.5
B14 | 0.7
B15 | 0.99
B16 | 4.4
